Measured values: patent publication US20230050440A1
Where a chain is given by its changes, count along the chain named.

B1: Clone 25 (antibody, V domains shown)
VH: QVQLVQSGAEVKKPGASVKVSCKASGYTFTSYAISWVRQAPGQGLEWMGWISAYNGNTNYAQKLQGRVTMTTDTSTSTAYMELRSLRSDDTAVYYCARDLSSFWSGDVLGAFDIWGQGTMVTVSS
VL: DIQMTQSPSSLSASVGDRVTITCRASQSISSYLNWYQQKPGKAPKLLIYAASSLQSGVPSRFSGSGSGTDFTLTISSLQPEDFATYYCQQSVPPRTFGGGTKVEIK
B2: Clone 25D (antibody, V domains shown)
VH: B1 VH with A33P, S35G, A53S, S101K
VL: B1 VL
B3: Clone 25A (antibody, V domains shown)
VH: B1 VH with N59K
VL: B1 VL
B4: Clone 25E (antibody, V domains shown)
VH: B1 VH with S35A, D99S, L100G
VL: B1 VL
B5: Clone 25C (antibody, V domains shown)
VH: B1 VH with A33P, S35G, A53S, D99G, L100A
VL: B1 VL
B6: Clone 25B (antibody, V domains shown)
VH: B1 VH with A33P, S35G, A53S
VL: B1 VL
B7: Clone 16D (antibody, V domains shown)
VH: QVQLVQSGAEVKKPGSSVKVSCKASGGTFSDYPISWVRQAPGQGLEWMGGIIPIVGGANYAQKFQGRVTITADESTSTAYMELSSLRSEDTAVYYCTRQSTWHKLFGTDVWGQGTTVTVSS
VL: DIQMTQSPSSVSASVGDRVTITCRASQGISSWLAWYQQKPGKAPKLLIYAASSLQSGVPSRFSGSGSGTDFTLTISSLQPEDFATYYCQQGDSLPPTFGGGTKVEIK
B8: Clone 16E (antibody, V domains shown)
VH: B7 VH with T97A, L105V, F106Y
VL: B7 VL
B9: Clone 16C (antibody, V domains shown)
VH: B7 VH with S30R, D31E, P33A, I52H, V55F, G57T, N59R, F106Y
VL: B7 VL
B10: Clone 22 (antibody, V domains shown)
VH: QVQLQESGPGLVKPSETLSLTCAVSGYSISSGYYWAWIRQPPGKGLEWIGSIYHSGSTYYNPSLKSRVTISVDTSKNQFSLKLSSVTAADTAVYYCARQGYYYGSSGSVDFDLWGRGTLVTVSS
VL: DIQMTQSPSSVSASVGDRVTITCRASQGISSWLAWYQQKPGKAPKLLIYAASNLQSGVPSRFSGSGSGTDFTLTISSLQPEDFATYYCQQANSLPPWTFGGGTKVEIK
B11: Clone 18 (antibody, V domains shown)
VH: QVQLVQSGAEVKKPGASVKVSCKASGYTFTSYYMSWVRQAPGQGLEWMGIINPSGGSTSYAQKFQGRVTMTRDTSTSTVYMELSSLRSEDTAVYYCARVRYGYADGMDVWGQGTTVTVSS
VL: B7 VL with V11L, G28S, W32Y, A34N, A50G, G91V, D92Y, S93H, P96F

Target: dimeric mouse TIGIT-Fc (R&D Systems, 7267-TG) (mouse) (UniProt P86176)
Experiment: BLI (ForteBio), IgG on sensor, avid

dimeric mouse TIGIT-Fc (R&D Systems, 7267-TG) (mouse), sequence (P86176 other isoform, or with tags, fused parts or gaps limits assumed, form in doubt): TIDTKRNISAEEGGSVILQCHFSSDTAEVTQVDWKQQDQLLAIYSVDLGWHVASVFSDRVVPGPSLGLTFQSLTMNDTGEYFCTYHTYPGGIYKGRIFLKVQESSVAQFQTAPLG

| Binder | Kd [nM] |
| --- | --- |
| B1 | 0.967 |
| B2 | 0.58 |
| B3 | 0.823 |
| B4 | 0.566 |
| B5 | 0.494 |
| B6 | 0.719 |
| B7 | 2.63 |
| B8 | 3.7 |
| B9 | 0.801 |

Target: mouse TIGIT expressed on cells (mouse) (UniProt P86176)
Experiment: flow cytometry, titration on activated mouse splenic T cells

mouse TIGIT expressed on cells (mouse), sequence (P86176 other isoform, or with tags, fused parts or gaps limits assumed, form in doubt): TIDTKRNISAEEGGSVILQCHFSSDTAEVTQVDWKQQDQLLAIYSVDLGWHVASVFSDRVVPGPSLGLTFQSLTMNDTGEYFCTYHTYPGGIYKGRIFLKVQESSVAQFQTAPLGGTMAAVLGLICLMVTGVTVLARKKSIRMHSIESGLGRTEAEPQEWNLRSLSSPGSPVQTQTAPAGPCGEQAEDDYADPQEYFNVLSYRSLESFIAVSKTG

| Binder | EC50 [µg/mL] |
| --- | --- |
| B1 | 2.28 |

Target: mouse TIGIT expressed on cells (mouse) (UniProt P86176)
Experiment: flow cytometry titration, HEK 293 cells expressing mouse TIGIT

| Binder | EC50 [µg/mL] |
| --- | --- |
| B1 | 0.24 |

Target: dimeric mouse TIGIT-Fc (R&D Systems, 7267-TG) (mouse) (UniProt P86176)
Experiment: BLI (ForteBio Octet RED384), IgG on AHQ sensor, 100 nM antigen, 1:1 model

| Binder | Kd [nM] |
| --- | --- |
| B1 | 1.1 |
| B10 | 10.5 |
| B11 | 8.82 |

Target: mouse TIGIT expressed on cells (mouse) (UniProt P86176)
Experiment: flow cytometry on HEK 293 cells expressing the target, MFI over parental HEK 293

| Binder | FOB (Fold Over Background) [fold] |
| --- | --- |
| B1 | 117 |
| B2 | 137 |
| B3 | 119 |
| B4 | 116 |
| B5 | 124 |
| B6 | 129 |
| B7 | 63 |
| B8 | 56 |
| B9 | 99 |
